Earlier results as cited in article PMC5401657.

Target: integrin αvβ3 (Homo sapiens) (UniProt P06756)
Experiment: SPR

Chain of UniProt P06756 (P06756 31-992, chain 1 of 2): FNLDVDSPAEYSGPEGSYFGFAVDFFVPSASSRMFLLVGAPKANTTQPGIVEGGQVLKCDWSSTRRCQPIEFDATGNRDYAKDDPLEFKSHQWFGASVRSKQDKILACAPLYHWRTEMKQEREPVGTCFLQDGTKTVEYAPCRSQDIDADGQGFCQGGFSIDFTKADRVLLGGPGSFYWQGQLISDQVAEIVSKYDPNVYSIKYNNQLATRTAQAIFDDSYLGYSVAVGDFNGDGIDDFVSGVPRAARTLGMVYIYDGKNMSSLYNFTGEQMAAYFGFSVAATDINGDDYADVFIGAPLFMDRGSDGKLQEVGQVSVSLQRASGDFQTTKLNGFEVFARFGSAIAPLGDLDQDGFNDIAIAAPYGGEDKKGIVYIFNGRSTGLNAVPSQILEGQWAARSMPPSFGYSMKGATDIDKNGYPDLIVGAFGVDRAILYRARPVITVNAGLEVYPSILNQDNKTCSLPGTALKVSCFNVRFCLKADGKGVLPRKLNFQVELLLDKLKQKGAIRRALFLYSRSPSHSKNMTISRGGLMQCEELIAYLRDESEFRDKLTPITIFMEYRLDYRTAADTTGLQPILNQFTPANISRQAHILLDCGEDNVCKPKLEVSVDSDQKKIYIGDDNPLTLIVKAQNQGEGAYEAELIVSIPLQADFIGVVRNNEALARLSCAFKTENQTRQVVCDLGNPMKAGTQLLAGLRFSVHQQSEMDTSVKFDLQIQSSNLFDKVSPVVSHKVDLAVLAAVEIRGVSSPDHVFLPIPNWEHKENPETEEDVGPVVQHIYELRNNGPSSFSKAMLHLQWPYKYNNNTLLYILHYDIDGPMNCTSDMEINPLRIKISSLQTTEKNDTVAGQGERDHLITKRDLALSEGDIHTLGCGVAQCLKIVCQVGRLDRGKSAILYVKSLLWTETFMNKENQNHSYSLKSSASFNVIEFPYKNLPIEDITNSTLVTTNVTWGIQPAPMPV
Chain of UniProt P06756 (P05106 27-718, chain 2 of 2, further chain): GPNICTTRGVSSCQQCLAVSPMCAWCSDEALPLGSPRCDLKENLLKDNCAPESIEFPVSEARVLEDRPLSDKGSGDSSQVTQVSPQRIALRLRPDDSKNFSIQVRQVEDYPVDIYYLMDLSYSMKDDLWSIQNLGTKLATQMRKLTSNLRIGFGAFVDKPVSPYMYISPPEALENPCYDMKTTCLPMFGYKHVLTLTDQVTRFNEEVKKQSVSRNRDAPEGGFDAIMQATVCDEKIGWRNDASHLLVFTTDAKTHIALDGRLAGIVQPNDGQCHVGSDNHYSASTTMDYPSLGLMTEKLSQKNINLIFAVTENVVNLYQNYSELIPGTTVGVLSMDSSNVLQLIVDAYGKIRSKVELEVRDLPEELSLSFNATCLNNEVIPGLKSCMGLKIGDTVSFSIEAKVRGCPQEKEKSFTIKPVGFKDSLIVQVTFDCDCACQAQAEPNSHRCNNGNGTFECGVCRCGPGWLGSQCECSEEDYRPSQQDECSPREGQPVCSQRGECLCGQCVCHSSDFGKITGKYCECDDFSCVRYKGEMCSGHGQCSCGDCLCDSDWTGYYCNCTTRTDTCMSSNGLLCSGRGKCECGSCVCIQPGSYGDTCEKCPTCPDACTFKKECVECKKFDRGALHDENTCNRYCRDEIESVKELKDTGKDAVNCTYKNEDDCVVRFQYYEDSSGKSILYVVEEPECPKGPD

Kd: 0.5 µM
Substance: IGF1 (from UniProt P05019)
